One experiment concerns the target T1, EVA-4 (UniProt P0C8E9 24-127).
T1 sequence (looked up): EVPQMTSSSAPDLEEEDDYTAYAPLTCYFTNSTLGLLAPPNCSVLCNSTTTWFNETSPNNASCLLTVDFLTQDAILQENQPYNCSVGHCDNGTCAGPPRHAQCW
Briefly: not stated; Kd of EVA-4 for human chemokines, three readings (source data of Supplementary Fig. 7); method and conditions not told for EVA-4.

Experiment [1] has as its target T2, EVA-AAM1001, C-terminally Avi-tagged and biotinylated (A. americanum, biotin on the AVI tag).
T2 chain: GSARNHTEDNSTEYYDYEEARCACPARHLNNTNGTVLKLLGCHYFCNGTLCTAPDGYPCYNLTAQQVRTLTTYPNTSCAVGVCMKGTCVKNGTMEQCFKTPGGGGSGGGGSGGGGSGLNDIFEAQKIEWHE
Description: SPR. Particulars: both partners purified.

Values joined by “and” are separate entries in the source; they are usually repeats but may differ in a detail not shown here. Equal entries are not always repeated.

B1: CCL3 (ligand, human, UniProt P10147 24-92, looked up)
chain: SLAADTPTACCFSYTSRQIPQNFIADYFETSSQCSKPGVIFLTKRSRQVCADPSEEWVQKYVSDLELSA
By Kd is commonly meant the constant that tells how readily two partners part at equilibrium. Low readings indicate higher affinity, high ones lower affinity. Regarding B1, the Kd in the experiment with EVA-4 is 0.175 nM and 0.285 nM and 0.27 nM.

B2: CCL11 (ligand)
chain: not shown
notes: source: E. coli Rosetta-gami 2 (DE3), purified (His-Trap, SEC, RP-HPLC)
On to B2, for which the Kd with EVA-4 was 14.1 nM and 23.5 nM and 22.7 nM.

B3: CCL5 (ligand, human, UniProt P13501 24-91, looked up)
chain: SPYSSDTTPCCFAYIARPLPRAHIKEYFYTSGKCSNPAVVFVTRKNRQVCANPEKKWVREYINSLEMS
In the case of B3, the Kd with EVA-4 was 6.07 nM and 5.93 nM and 6.16 nM.

B4: CCL17 (ligand, human, UniProt Q92583 24-94, looked up)
chain: ARGTNVGRECCLEYFKGAIPLRKLKTWYQTSEDCSRDAIVFVTVQGRAICSDPNNKRVKNAVKYLQSLERS
notes: as for B2
B4: in the experiment with EVA-4, the Kd was 282 nM and 283 nM and 285 nM.

B5: CCL26 (ligand, human, UniProt Q9Y258 24-94, looked up)
chain: TRGSDISKTCCFQYSHKPLPWTWVRSYEFTSNSCSQRAVIFTTKRGKKVCTHPRKKWVQKYISLLKTPKQL
In the case of B5, the Kd with EVA-4 is 56.5 nM and 69.6 nM and 86.6 nM.

B6: CCL8 (ligand, human, UniProt P80075 24-99, looked up)
chain: QPDSVSIPITCCFNVINRKIPIQRLESYTRITNIQCPKEAVIFKTKRGKEVCADPKERWVRDSMKHLDQIFQNLKP
In the case of B6, the Kd in the experiment with EVA-4 was 0.259 nM and 0.49 nM and 0.489 nM.

B7: CCL7(Y13A) (ligand)
chain: not shown
notes: as for B2
As to B7, the “fold increase in affinity over wild type CCL7” value in experiment [1] is approximately 10000 fold.

B8: CCL1 (ligand, human, UniProt P22362 24-96, looked up)
chain: KSMQVPFSRCCFSFAEQEIPLRAILCYRNTSSICSNEGLIFKLKRGKEACALDTVGWVQRHRKMLRHCPSKRK
Regarding B8, in the experiment with EVA-4, the Kd was 449 nM and 342 nM and 338 nM.

B9: CCL7 (ligand)
chain: not shown
notes: as for B2
Consider B9, for which, in the experiment with EVA-4, the Kd is 0.651 nM and 0.847 nM and 0.833 nM.

B10: CCL11(F11A) (ligand)
chain: not shown
notes: also called CC + 1 residue-mutated CCL11; source: E. coli Rosetta-gami 2 (DE3), purified (His-Trap, SEC, RP-HPLC)
Take B10: the “fold increase in affinity over wild type CCL11” value in experiment [1] is approximately 200 fold.

B11: CCL22 (ligand, human, UniProt O00626 25-93, looked up)
chain: GPYGANMEDSVCCRDYVRYRLPLRVVKHFYWTSDSCPRPGVVLLTFRDKEICADPRVPWVKMILNKLSQ
B11: the Kd with EVA-4 was 8.49 nM and 8.53 nM and 8.35 nM.

B12: CCL18 (ligand, human, UniProt P55774 21-89, looked up)
chain: AQVGTNKELCCLVYTSWQIPQKFIVDYSETSPQCPKPGVILLTKRGRQICADPNKKWVQKYISDLKLNA
Consider B12, for which, in the experiment with EVA-4, the Kd is 0.346 nM and 0.451 nM and 0.45 nM.

B13: CCL24 (ligand, human, UniProt O00175 27-119, looked up)
chain: VVIPSPCCMFFVSKRIPENRVVSYQLSSRSTCLKAGVIFTTKKGQQFCGDPKQEWVQRYMKNLDAKQKKASPRARAVAVKGPVQRYPGNQTTC
As to B13, in the experiment with EVA-4, the Kd was 53.8 nM and 54.2 nM and 56.7 nM.

The values above are taken from article PMC10349104, “Engineering broad-spectrum inhibitors of inflammatory chemokines from subclass A3 tick evasins” (Nature Communications, 2023).
